{"source": "patent US20210032299A1", "about": "(Eli Lilly, published 2021)", "key": {"[1]": {"molecular_target": "T1, human glucose-dependent insulinotropic polypeptide (GIP) receptor (human, UniProt P48546 22-466)", "T1 construct": "whole, on cells; Assayed as crude membranes of stably transfected CHO cells; also called hGIPR; human GIP receptor", "T1 sequence (looked up)": "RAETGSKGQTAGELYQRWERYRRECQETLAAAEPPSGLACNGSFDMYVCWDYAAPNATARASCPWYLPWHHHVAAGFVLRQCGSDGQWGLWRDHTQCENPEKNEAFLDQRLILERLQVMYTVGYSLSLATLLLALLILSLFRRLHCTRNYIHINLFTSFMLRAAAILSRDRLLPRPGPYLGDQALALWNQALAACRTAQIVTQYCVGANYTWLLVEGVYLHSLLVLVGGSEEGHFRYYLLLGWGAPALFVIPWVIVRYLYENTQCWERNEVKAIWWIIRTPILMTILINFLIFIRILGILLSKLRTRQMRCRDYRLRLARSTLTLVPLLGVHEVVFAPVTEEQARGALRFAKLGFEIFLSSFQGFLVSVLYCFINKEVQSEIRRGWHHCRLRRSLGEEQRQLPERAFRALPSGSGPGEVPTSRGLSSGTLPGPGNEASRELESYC", "assay": "SPA, displacement of [125I]-GIP from hGIPR membranes, 0.1% bacitracin"}, "human glucagon receptor": {"molecular_target": "T2, human glucagon receptor (human, UniProt P47871 26-477)", "T2 construct": "whole, on cells; Assayed as crude membranes of stably transfected HEK293 cells; also called hGcgR; GcgR", "T2 sequence (P47871 26-477)": "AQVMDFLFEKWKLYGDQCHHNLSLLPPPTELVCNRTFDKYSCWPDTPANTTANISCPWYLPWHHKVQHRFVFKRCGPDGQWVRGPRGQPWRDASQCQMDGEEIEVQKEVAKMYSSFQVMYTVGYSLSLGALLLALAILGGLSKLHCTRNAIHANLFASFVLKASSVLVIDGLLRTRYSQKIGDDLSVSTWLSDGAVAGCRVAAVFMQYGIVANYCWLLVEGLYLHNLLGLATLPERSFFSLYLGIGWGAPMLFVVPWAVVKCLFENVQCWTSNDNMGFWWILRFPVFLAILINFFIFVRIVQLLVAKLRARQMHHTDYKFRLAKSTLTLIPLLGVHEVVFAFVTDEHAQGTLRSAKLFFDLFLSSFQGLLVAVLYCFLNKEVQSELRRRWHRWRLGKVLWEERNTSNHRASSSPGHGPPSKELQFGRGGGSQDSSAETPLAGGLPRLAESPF", "assay": "SPA, displacement of [125I]-Gcg from hGcgR membranes, 0.1% bacitracin", "protocol": "The binding buffer contains 25 mM 4-(2-hydroxyethyl)-1-piperazineethanesulfonic acid (HEPES), pH 7.4, 2.5 mM CaCl₂), 1 mM MgCl₂, 0.1% (w/v) bacitracin (Research Products), 0.003% (w/v) Polyoxyethylenesorbitan monolaurate (TWEEN®-20), and Roche Complete™ Protease Inhibitors without EDTA. […] Plates are sealed and mixed on a plate shaker (setting 6) for 1 minute and read with a PerkinElmer Trilux MicroBeta® scintillation counter after 12 hours of incubation/settling time at room temperature.\nData are analyzed using four-parameter (curve maximum, curve minimum, […], Hill slope) nonlinear regression routines (Genedata Screener, version 12.0.4, Genedata AG, Basal, Switzerland). […] Values for Kᵢ are reported as the geometric mean, with error expressed as the standard error of the mean (SEM) and n is equal to the number of independent replicates (determined in assays performed on different days)."}, "human GLP-1 receptor": {"molecular_target": "T3, human GLP-1 receptor (human, UniProt P43220 24-463)", "T3 construct": "whole, on cells; Assayed as crude membranes of stably transfected HEK293 cells; also called hGLP1R; hGLP-1R", "assay": "SPA, displacement of [125I]-GLP-1 from hGLP-1R membranes, 0.1% bacitracin", "method_in_brief": "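Binding buffer: 25 mM HEPES pH 7.4, 2.5 mM CaCl₂, 1 mM MgCl₂, 0.1% bacitracin, 0.003% Tween-20, protease inhibitors without EDTA. Four-parameter nonlinear regression; Kᵢ given as geometric mean ± SEM, n = independent replicates run on different days.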"}}, "note": "Starred links: 1 amine or outer side, 2 acyl side, 3 side chain; linkers in the order of their positions; H or OH if unused. Non-standard residues stand in square brackets, D forms with d. Groups on a side chain read outwards from the residue. No end group written: not given here. *: point of attachment. C20 diacid = O=C(O)CCCCCCCCCCCCCCCCCCC(=O)*; γGlu = O=C(O)[C@H](CCC(=O)[*:2])N[*:1]; 4Pal = N[C@@H](Cc1ccncc1)C(=O)O; αMeL = CC(C)C[C@](C)(N)C(=O)O; AEEA = NCCOCCOCC(=O)O; Aib = CC(C)(N)C(=O)O"}
{"binder": "Y[Aib]EGTFISDYSI[αMeL]LDKK([AEEA-AEEA-γGlu-C20 diacid])HQ[Aib]DFVE[4Pal]LLEGGPSSGAPPPS-NH2 (N-terminus assumed; SMILES CC[C@H](C)[C@H](NC(=O)[C@H](Cc1ccccc1)NC(=O)[C@@H](NC(=O)CNC(=O)[C@H](CCC(=O)O)NC(=O)C(C)(C)NC(=O)[C@@H](N)Cc1ccc(O)cc1)[C@@H](C)O)C(=O)N[C@@H](CO)C(=O)N[C@@H](CC(=O)O)C(=O)N[C@@H](Cc1ccc(O)cc1)C(=O)N[C@@H](CO)C(=O)N[C@H](C(=O)N[C@@](C)(CC(C)C)C(=O)N[C@@H](CC(C)C)C(=O)N[C@@H](CC(=O)O)C(=O)N[C@@H](CCCCN)C(=O)N[C@@H](CCCCNC(=O)COCCOCCNC(=O)COCCOCCNC(=O)CC[C@H](NC(=O)CCCCCCCCCCCCCCCCCCC(=O)O)C(=O)O)C(=O)N[C@@H](Cc1c[nH]cn1)C(=O)N[C@@H](CCC(N)=O)C(=O)NC(C)(C)C(=O)N[C@@H](CC(=O)O)C(=O)N[C@@H](Cc1ccccc1)C(=O)N[C@H](C(=O)N[C@@H](CCC(=O)O)C(=O)N[C@@H](Cc1ccncc1)C(=O)N[C@@H](CC(C)C)C(=O)N[C@@H](CC(C)C)C(=O)N[C@@H](CCC(=O)O)C(=O)NCC(=O)NCC(=O)N1CCC[C@H]1C(=O)N[C@@H](CO)C(=O)N[C@@H](CO)C(=O)NCC(=O)N[C@@H](C)C(=O)N1CCC[C@H]1C(=O)N1CCC[C@H]1C(=O)N1CCC[C@H]1C(=O)N[C@@H](CO)C(N)=O)C(C)C)[C@@H](C)CC)", "note": "[Example 47]", "values": [{"measurement": "Ki", "setting": "[1]", "value": 0.0452, "unit": "nM"}, {"measurement": "Ki", "setting": "human glucagon receptor", "value": 175, "unit": "nM"}, {"measurement": "Ki", "setting": "human GLP-1 receptor", "value": 320, "unit": "nM"}]}
{"binder": "Y[Aib]EGTFISDYSI[αMeL]LDKK([AEEA-AEEA-γGlu-C20 diacid])HQ[Aib]EFVE[4Pal]LLAQGPSSGAPPPS-NH2 (N-terminus assumed; SMILES CC[C@H](C)[C@H](NC(=O)[C@H](Cc1ccccc1)NC(=O)[C@@H](NC(=O)CNC(=O)[C@H](CCC(=O)O)NC(=O)C(C)(C)NC(=O)[C@@H](N)Cc1ccc(O)cc1)[C@@H](C)O)C(=O)N[C@@H](CO)C(=O)N[C@@H](CC(=O)O)C(=O)N[C@@H](Cc1ccc(O)cc1)C(=O)N[C@@H](CO)C(=O)N[C@H](C(=O)N[C@@](C)(CC(C)C)C(=O)N[C@@H](CC(C)C)C(=O)N[C@@H](CC(=O)O)C(=O)N[C@@H](CCCCN)C(=O)N[C@@H](CCCCNC(=O)COCCOCCNC(=O)COCCOCCNC(=O)CC[C@H](NC(=O)CCCCCCCCCCCCCCCCCCC(=O)O)C(=O)O)C(=O)N[C@@H](Cc1c[nH]cn1)C(=O)N[C@@H](CCC(N)=O)C(=O)NC(C)(C)C(=O)N[C@@H](CCC(=O)O)C(=O)N[C@@H](Cc1ccccc1)C(=O)N[C@H](C(=O)N[C@@H](CCC(=O)O)C(=O)N[C@@H](Cc1ccncc1)C(=O)N[C@@H](CC(C)C)C(=O)N[C@@H](CC(C)C)C(=O)N[C@@H](C)C(=O)N[C@@H](CCC(N)=O)C(=O)NCC(=O)N1CCC[C@H]1C(=O)N[C@@H](CO)C(=O)N[C@@H](CO)C(=O)NCC(=O)N[C@@H](C)C(=O)N1CCC[C@H]1C(=O)N1CCC[C@H]1C(=O)N1CCC[C@H]1C(=O)N[C@@H](CO)C(N)=O)C(C)C)[C@@H](C)CC)", "note": "[Example 57]", "values": [{"measurement": "Ki", "setting": "[1]", "value": 0.0154, "unit": "nM"}, {"measurement": "Ki", "setting": "human glucagon receptor", "value": 422, "unit": "nM"}, {"measurement": "Ki", "setting": "human GLP-1 receptor", "value": 280, "unit": "nM"}]}
{"binder": "Y[Aib]EGTFISDYSI[αMeL]LDKK([AEEA-AEEA-γGlu-C20 diacid])HQ[Aib]EFVE[4Pal]LLATGPSSGAPPPS-NH2 (N-terminus assumed; SMILES CC[C@H](C)[C@H](NC(=O)[C@H](Cc1ccccc1)NC(=O)[C@@H](NC(=O)CNC(=O)[C@H](CCC(=O)O)NC(=O)C(C)(C)NC(=O)[C@@H](N)Cc1ccc(O)cc1)[C@@H](C)O)C(=O)N[C@@H](CO)C(=O)N[C@@H](CC(=O)O)C(=O)N[C@@H](Cc1ccc(O)cc1)C(=O)N[C@@H](CO)C(=O)N[C@H](C(=O)N[C@@](C)(CC(C)C)C(=O)N[C@@H](CC(C)C)C(=O)N[C@@H](CC(=O)O)C(=O)N[C@@H](CCCCN)C(=O)N[C@@H](CCCCNC(=O)COCCOCCNC(=O)COCCOCCNC(=O)CC[C@H](NC(=O)CCCCCCCCCCCCCCCCCCC(=O)O)C(=O)O)C(=O)N[C@@H](Cc1c[nH]cn1)C(=O)N[C@@H](CCC(N)=O)C(=O)NC(C)(C)C(=O)N[C@@H](CCC(=O)O)C(=O)N[C@@H](Cc1ccccc1)C(=O)N[C@H](C(=O)N[C@@H](CCC(=O)O)C(=O)N[C@@H](Cc1ccncc1)C(=O)N[C@@H](CC(C)C)C(=O)N[C@@H](CC(C)C)C(=O)N[C@@H](C)C(=O)N[C@H](C(=O)NCC(=O)N1CCC[C@H]1C(=O)N[C@@H](CO)C(=O)N[C@@H](CO)C(=O)NCC(=O)N[C@@H](C)C(=O)N1CCC[C@H]1C(=O)N1CCC[C@H]1C(=O)N1CCC[C@H]1C(=O)N[C@@H](CO)C(N)=O)[C@@H](C)O)C(C)C)[C@@H](C)CC)", "note": "[Example 58]", "values": [{"measurement": "Ki", "setting": "[1]", "value": 0.0324, "unit": "nM"}, {"measurement": "Ki", "setting": "human glucagon receptor", "value": 418, "unit": "nM"}, {"measurement": "Ki", "setting": "human GLP-1 receptor", "value": 459, "unit": "nM"}]}
{"binder": "Y[Aib]EGTFISDYSI[αMeL]LDKK([AEEA-AEEA-γGlu-C20 diacid])HQ[Aib]EFVE[4Pal]LLAGGPSSGAPPPS-NH2 (N-terminus assumed; SMILES CC[C@H](C)[C@H](NC(=O)[C@H](Cc1ccccc1)NC(=O)[C@@H](NC(=O)CNC(=O)[C@H](CCC(=O)O)NC(=O)C(C)(C)NC(=O)[C@@H](N)Cc1ccc(O)cc1)[C@@H](C)O)C(=O)N[C@@H](CO)C(=O)N[C@@H](CC(=O)O)C(=O)N[C@@H](Cc1ccc(O)cc1)C(=O)N[C@@H](CO)C(=O)N[C@H](C(=O)N[C@@](C)(CC(C)C)C(=O)N[C@@H](CC(C)C)C(=O)N[C@@H](CC(=O)O)C(=O)N[C@@H](CCCCN)C(=O)N[C@@H](CCCCNC(=O)COCCOCCNC(=O)COCCOCCNC(=O)CC[C@H](NC(=O)CCCCCCCCCCCCCCCCCCC(=O)O)C(=O)O)C(=O)N[C@@H](Cc1c[nH]cn1)C(=O)N[C@@H](CCC(N)=O)C(=O)NC(C)(C)C(=O)N[C@@H](CCC(=O)O)C(=O)N[C@@H](Cc1ccccc1)C(=O)N[C@H](C(=O)N[C@@H](CCC(=O)O)C(=O)N[C@@H](Cc1ccncc1)C(=O)N[C@@H](CC(C)C)C(=O)N[C@@H](CC(C)C)C(=O)N[C@@H](C)C(=O)NCC(=O)NCC(=O)N1CCC[C@H]1C(=O)N[C@@H](CO)C(=O)N[C@@H](CO)C(=O)NCC(=O)N[C@@H](C)C(=O)N1CCC[C@H]1C(=O)N1CCC[C@H]1C(=O)N1CCC[C@H]1C(=O)N[C@@H](CO)C(N)=O)C(C)C)[C@@H](C)CC)", "note": "[Example 52]", "values": [{"measurement": "Ki", "setting": "[1]", "value": 0.0372, "unit": "nM"}, {"measurement": "Ki", "setting": "human glucagon receptor", "value": 114, "unit": "nM"}, {"measurement": "Ki", "setting": "human GLP-1 receptor", "value": 128, "unit": "nM"}]}
{"binder": "Y[Aib]EGTFISDYSI[αMeL]LDKK([AEEA-AEEA-γGlu-C20 diacid])HQ[Aib]EFVE[4Pal]LLAAGPSSGAPPPS-NH2 (N-terminus assumed; SMILES CC[C@H](C)[C@H](NC(=O)[C@H](Cc1ccccc1)NC(=O)[C@@H](NC(=O)CNC(=O)[C@H](CCC(=O)O)NC(=O)C(C)(C)NC(=O)[C@@H](N)Cc1ccc(O)cc1)[C@@H](C)O)C(=O)N[C@@H](CO)C(=O)N[C@@H](CC(=O)O)C(=O)N[C@@H](Cc1ccc(O)cc1)C(=O)N[C@@H](CO)C(=O)N[C@H](C(=O)N[C@@](C)(CC(C)C)C(=O)N[C@@H](CC(C)C)C(=O)N[C@@H](CC(=O)O)C(=O)N[C@@H](CCCCN)C(=O)N[C@@H](CCCCNC(=O)COCCOCCNC(=O)COCCOCCNC(=O)CC[C@H](NC(=O)CCCCCCCCCCCCCCCCCCC(=O)O)C(=O)O)C(=O)N[C@@H](Cc1c[nH]cn1)C(=O)N[C@@H](CCC(N)=O)C(=O)NC(C)(C)C(=O)N[C@@H](CCC(=O)O)C(=O)N[C@@H](Cc1ccccc1)C(=O)N[C@H](C(=O)N[C@@H](CCC(=O)O)C(=O)N[C@@H](Cc1ccncc1)C(=O)N[C@@H](CC(C)C)C(=O)N[C@@H](CC(C)C)C(=O)N[C@@H](C)C(=O)N[C@@H](C)C(=O)NCC(=O)N1CCC[C@H]1C(=O)N[C@@H](CO)C(=O)N[C@@H](CO)C(=O)NCC(=O)N[C@@H](C)C(=O)N1CCC[C@H]1C(=O)N1CCC[C@H]1C(=O)N1CCC[C@H]1C(=O)N[C@@H](CO)C(N)=O)C(C)C)[C@@H](C)CC)", "note": "[Example 59]", "values": [{"measurement": "Ki", "setting": "[1]", "value": 0.0148, "unit": "nM"}, {"measurement": "Ki", "setting": "human glucagon receptor", "value": 230, "unit": "nM"}, {"measurement": "Ki", "setting": "human GLP-1 receptor", "value": 109, "unit": "nM"}]}
